In paper PMC8840469, “Directed Evolution of a Nonheme Diiron N-oxygenase AzoC for Improving Its Catalytic Efficiency toward Nitrogen Heterocycle Substrates” (Molecules, 2022) one finds Km, kcat and kcat/Km data, which are given here for 2 molecules.

In data set [1] the test system is T1, COc1ncc(N)cn1.
T1 construct: nonheme diiron enzyme
The data set is described as follows: HPLC, initial velocity, Michaelis-Menten fit. Particulars: 30 °C, 1 h, 5.2 μM enzyme, substrate 0.05-2 mM, general in vitro reaction (not restated for kinetics): NADH 0.1 mM, PMS 0.75 mM, 20 mM HEPES pH 7.5. It is filed as biochemical, Streptomyces chattanoogensis. The text has this:
(§1) HPLC, initial velocity, Michaelis-Menten fit on AzoC

Data set [2] deals with T2, AzoC.
T2 construct: nonheme diiron enzyme
The data set is described as follows: HPLC, initial velocity, Michaelis-Menten fit. It is filed as biochemical, Streptomyces chattanoogensis. Particulars: 30 °C, 1 h; 5.2 μM enzyme; substrate 0.05-2 mM; general in vitro reaction (not restated for kinetics): NADH 0.1 mM, PMS 0.75 mM, 20 mM HEPES pH 7.5, but 3 μM enzyme; read-out: Substrate: 2-methoxypyrimidin-5-amine / Km.
Description: as §1

By kcat is commonly meant the maximal rate divided by the concentration of active sites. As a reminder, the kcat/Km is the turnover number divided by the Michaelis constant. For AzoC (Streptomyces chattanoogensis), in data set [1], the Km amounted to 650 ± 120 µM, the catalytic constant (kcat) came to 0.018 ± 0.0014 s⁻¹ and the kcat/Km is 27.7 M⁻¹ s⁻¹.
As to `COc1ncc(N)cn1` [compound 3, 2-methoxypyrimidin-5-amine], the Km in data set [2] amounted to 510 ± 59 µM.
